Assay [1] addresses T1, 14 AA stub (a.a. 290-303 of SEQ ID NO: 247) (human).
T1 peptide: GYLVLDLSMQEALS
As to the kind of experiment: SPR, mAb captured, peptide injected. How it is done:
(§1) The binding was assessed by SPR. Briefly, GAH-Fc was used to capture mAbs on C4 sensor chip followed by antigen injection starting at 30 nM (14 amino acid stub), 100 nM (10-13 amino acid stubs), or 1000 nM (7-9 amino acid stubs) progressing in a 3-fold dilution series in single cycle kinetics mode. HBSP+0.01% BSA was used in the assay.
In general terms: SPR reads the build-up and loss of mass on a sensor chip optically.

Assay [2] concerns the target T2, 13 AA stub (a.a. 291-303 of SEQ ID NO: 247) (human).
T2 peptide: YLVLDLSMQEALS
Kind of assay: SPR, mAb captured, peptide injected. As for the experimental part:
as §1

Assay [3] concerns the target T3, 12 AA stub region peptide LVLDLSMQEALS (human).
T3 construct: free N-terminus; also called 12 AA Peptide
T3 peptide: LVLDLSMQEALS
As to the kind of experiment: SPR, mAb captured, peptide injected. How it is done: as §1

In assay [4] the target is T4, 11 AA stub (a.a. 293-303 of SEQ ID NO: 247) (human).
T4 peptide: VLDLSMQEALS
As to the kind of experiment: SPR, mAb captured, peptide injected. How it is done: as §1

The target of assay [5] is T5, 10 AA stub (a.a. 294-303 of SEQ ID NO: 247) (human).
T5 peptide: LDLSMQEALS
Kind of assay: SPR, mAb captured, peptide injected. How it is done:
as §1

In assay [6] the target is T6, 9 AA stub (a.a. 295-303 of SEQ ID NO: 247) (human).
T6 peptide: DLSMQEALS
Kind of assay: SPR, mAb captured, peptide injected. How it is done: as §1

The target of assay [7] is T7, 7 AA stub (a.a. 297-303 of SEQ ID NO: 247) (human).
T7 peptide: SMQEALS
Kind of assay: SPR, mAb captured, peptide injected. How it is done: as §1

Assay [8] has as its target T8, MSNW10, recombinant full length human MSLN (human, UniProt Q13421 296-598).
T8 construct: also called MSNW10.002; FL-MSLN
Kind of assay: SPR, recombinant full-length human MSLN.

The target of assay [9] is T9, MSNW11, recombinant soluble (shed) MSLN lacking the C-terminal 7 AAs (human, UniProt Q13421 296-591).
T9 construct: domain: soluble MSLN lacking the C-terminal 7 AAs; also called MSNW11.002; soluble MSLN
As to the kind of experiment: H838 cell binding with shed MSLN (MSNW11) added. From the text: Table 16 lists the immunization campaigns, antigens used, and number of clones returned at each stage of screening. Clones from which antibody sequences were successfully recovered were first screened for binding to recombinant full length human MSLN (MSNW10) and H838 cells that express MSLN on the cell surface. Binders were further screened for binding to cells in the presence of recombinant soluble MSLN lacking the C-terminal 7 AAs (MSNW11). This form of recombinant MSLN represented the product of cleavage at the closest cleavage site to the C-terminus known at the time, therefore, it theoretically represented the longest form of shed MSLN. The final concentration of shed MSLN in the assays was 100 nM.

Assay [10] deals with T10, 8 AA stub (a.a. 296-303 of SEQ ID NO: 247) (human).
T10 construct: also called 8 AA Peptide; peptide of the last 8 C-terminal amino acids
T10 peptide: LSMQEALS
As to the kind of experiment: competition of OVCAR8 cell binding by the peptide.

Assay [11] concerns the target T11, human MSLN on the cell surface (human, UniProt Q13421 296-598).
T11 construct: on cells stands the processed GPI-anchored 40 kDa MSLN; also called membrane MSLN; MSLN on H838, OVCAR-8 (OVCAR8), OVCAR-8 K1/C8, SK-OV-3 cells
Kind of assay: high content imaging, surface staining of OVCAR8 cells. As for the experimental part: OVCAR8 cells were cultured in RPMI 1640 medium supplemented with 10% FCS, 1% L-glutamine and 1% Gentamycin and seeded in Greiner CELLSTAR plate one day before experiment. 24 h after seeding, antibody mixture was prepared by diluting MSLN and control antibodies in Table 21 in full media containing CellMask™ Deep Red Plasma Membrane Stain (ThermoFisher, C10046) in 12 concentrations each with 3 folds dilution starting from 20 μg/ml and 20 μl of which were added directly to the cells in 20 μl. Antibodies were allowed for binding to the cell surface for 2h inside the incubator (37°) C. and the surface bound antibodies were fixed for 15 min at RT by directly adding 30 ul of 10% Formaldehyde (04018-1, Polysciences). Afterwards residual Formaldehyde was removed by washing the cells twice with PBS and the primary antibodies were stained with secondary antibodies (Alexa Fluor 488 goat anti-human IgG, Invitrogen, A11013) complemented with Hoechst 33342 (H3570, ThermoFisher) and HCS CellMask™ Deep Red Stain (ThermoFisher, H32721) in PBS for 1h at RT. After removing unbound antibodies and other dyes by washing the cells 3 times with PBS cells were imaged on the CellVoyager 7000 (Yokogawa, Tokyo, Japan) using a 40×/0.95 objective. Of each well, 9 fields were imaged. Image analysis was performed with Acapella (PerkinElmer, Waltham, MA, USA) and the results stored in Phaedra (OpenAnalytics, Antwerp, Belgium). Data analysis was done in R (www.r-project.org).
The data was then fitted using the four-parameter logistic using least-squares regression, keeping the lower boundary fixed at 0.

The target of assay [12] is T8, MSNW10, recombinant full length human …. Kind of assay: SPR, additional experiments.
The target in assay [13] is T3, 12 AA stub region peptide LVLDLSMQEALS
Kind of assay: SPR.

The target in assay [14] is T12, CD3 epsilon on human T-cells (human, UniProt P07766 23-207). Kind of assay: cell-based or functional assay.
Assay [15] concerns the target T12, CD3 epsilon on human T-cells. As to the kind of experiment: T-cell binding assay, FIG. 15.
For assay [16] the target is unchanged. As to the kind of experiment: T cell binding.

Residue numbers refer to the chain shown, from its start. In names and notes the source's numbering stands.

T9 sequence (Q13421 other isoform, or with tags, fused parts or gaps limits assumed): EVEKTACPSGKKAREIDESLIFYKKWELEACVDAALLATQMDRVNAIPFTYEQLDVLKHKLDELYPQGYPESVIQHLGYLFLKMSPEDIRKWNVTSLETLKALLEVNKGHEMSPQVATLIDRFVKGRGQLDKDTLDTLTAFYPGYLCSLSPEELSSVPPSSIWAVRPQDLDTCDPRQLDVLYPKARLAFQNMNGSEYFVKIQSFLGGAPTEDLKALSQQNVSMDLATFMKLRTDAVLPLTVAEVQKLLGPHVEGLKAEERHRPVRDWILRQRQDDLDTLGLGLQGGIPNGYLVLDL
T8 sequence (Q13421 other isoform, or with tags, fused parts or gaps limits assumed): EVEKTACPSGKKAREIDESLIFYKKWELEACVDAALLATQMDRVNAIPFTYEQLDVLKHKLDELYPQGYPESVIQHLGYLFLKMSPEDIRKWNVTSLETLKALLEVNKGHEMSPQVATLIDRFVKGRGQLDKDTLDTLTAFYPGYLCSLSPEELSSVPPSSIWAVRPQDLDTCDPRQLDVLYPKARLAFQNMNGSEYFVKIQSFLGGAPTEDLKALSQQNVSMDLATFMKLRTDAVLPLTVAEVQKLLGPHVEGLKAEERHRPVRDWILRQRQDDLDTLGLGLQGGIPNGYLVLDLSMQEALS
T12 sequence (P07766 23-207 limits assumed): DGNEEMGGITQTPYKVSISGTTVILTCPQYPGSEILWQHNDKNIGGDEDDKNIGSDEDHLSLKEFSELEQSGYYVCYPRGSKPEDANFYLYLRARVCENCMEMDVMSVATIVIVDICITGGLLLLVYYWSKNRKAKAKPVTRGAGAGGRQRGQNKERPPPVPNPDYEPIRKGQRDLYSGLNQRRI

B1: MSLNB570 (antibody, V domains shown)
VH: QVQLQQSGPGLVKPSQTLSLTCAISGDSVSSTSVAWNWIRQSPSGGLEWLGRTYYRSKWYNDYALSVKSRMTINPDTASNQFSLQLNSVTPEDTAVYYCSRGIVGALDYWGQGTLVTVSS
VL: DIVMTQTPLSLPVTPGGPASISCRSSQSLMYSNGYNHLDWYLQKPGQSPQFLIHLGSNRVSGVPDRFSGSGSGTDFTLKISRVEAEDVGVYYCMQALRTPYTFGQGTKVDIK
notes: mAb; also called MSNB570
In the case of B1, the dissociation constant (Kd) in assay [1] is 3.67 nM; in [2], 4.37 nM; in [3], 7.97 nM; in assay [8], 3.6 nM. Also, the binding result in assay [4] was “no binding (tested: 100 nM)”; in assay [5], “no binding (tested: 100 nM)”; in [6], “no binding (tested: 1000 nM)”; in assay [7], “no binding (tested: 1000 nM)”; in [9], “no binding (tested: 100 nM)”; in assay [10], “no binding”. The molecule also gave an IC50 in assay [11] of 0.0728 µg/mL. For the same molecule, the “Maximum Value (arbitrary units)” value in assay [11] was found to be 1.39e+07 arbitrary units.

B2: MSNB459 (antibody, V domains shown)
VH: B1 VH with Q1E, Q5V, T32N, G45R, M71I, A78S, S79K, S100A, I103V, L107V
VL: DIVMTQSPLSLPVTPGEPASISCRSSQNLLYSNGYNSLDWYLQKPGQSPQLLIYLGSNRASGVPDRFSGSGSGTDFTLKISRVEAEDVGVYYCMQGLRTPLTFGGGTKVEIK
notes: mAb
As to B2, the equilibrium dissociation constant (Kd) in assay [8] amounted to 3.5 nM. Further, the binding result in [9] was “no binding (tested: 100 nM)”.

B3: MSLNB592 (antibody, V domains shown)
VH: B1 VH
VL: B1 VL with T7S, G17E, V60A, D110E
notes: mAb; also called MSNB592
On to B3, for which the Kd in assay [12] came out at 0.9 nM. Moreover, the binding result in assay [9] was “no binding (tested: 100 nM)”.

B4: MSLNB571 (antibody, V domains shown)
VH: B1 VH with T53I
VL: B1 VL
notes: mAb; also called MSNB571
As for B4, the binding result in assay [13] is “binds”. The equilibrium dissociation constant (Kd) in [8] is 1.8 nM. Also, the binding result in assay [9] is “no binding (tested: 100 nM)”. For the same molecule, in assay [11], the half-inhibitory concentration (IC50) is 0.0735 µg/mL and the “Maximum Value (arbitrary units)” value turned out to be 1.46e+07 arbitrary units.

B5: MSLNB590 (antibody, V domains shown)
VH: QVQLQQSGPGLVKPSQTLSLTCAISGDSVSSTRAAWNWIRQSPSRGLEWLGRTYYRSKWYNDYTVSVKSRITINPDTSKNQFSLHLNSVTPEDSAVYFCARGNVGRVDFWGQGTLVTVSS
VL: B2 VL with D1E, N28S, Y31H, N33D, S37Y, G73D, G105P, V109L
notes: mAb; also called MSNB590
As to B5, the dissociation constant (Kd) in [12] worked out at 1.2 nM. Further, in assay [9], the binding result is “no binding (tested: 100 nM)”.

B6: MSNB133 (antibody, V domains shown)
VH: QVQLQQSGPGLVKPSQTLSLTCAISGDSVSSNRVAWNWIRQSPSRGLEWLGRTYYRSKWYNDFALSVKSRININADTSKSQFSLQLNSVTPEDTAVYYCARGIVGALDYWGQGTTVTVSS
VL: B2 VL with N28S, Y31F, G71E, G96A, R98Q, L101F, G105P, V109L
notes: mAb
As for B6, the dissociation constant (Kd) in assay [8] was found to be 3.7 nM. In addition, the binding result in assay [9] was “no binding (tested: 100 nM)”.

B7: MNC3B199 (bispecific antibody, V domains shown, not shown: a dimerising Fc or GST; small tags and cut ends)
VH 1: QVQLVESGPGQVKPSQTLSLTCAISGDSVSSNSAAWNWIRQSPSRGLEWLGRTYYRSKWYNDYAVSVKSRITINPDTSKNQFSLQLNSVTPEDTAVYYCARRDYSSGGFDYWGQGTTVTVSS
VL 1: not shown
VH 2: QVQLVQSGAEVKKPGSSVKVSCKASGYTFTRSTMHWVKQAPGQGLEWMGYINPSSAYTNYNQKFQGRVTLTADKSTSTAYMELSSLRSEDTAVYYCASPQVHYDYAGFPYWGQGTLVTVSS
VL 2: EIVLTQSPATLSASPGERVTLSCSASSSVSYMNWYQQKPGQAPRRLIYDSSKLASGVPARFSGSGSGRDYTLTISSLEPEDFAVYYCQQWSRNPPTFGGGTKVEIK
With B7, in assay [14], the “AC90 [nM], cytotoxicity, 1:1 E:T, 72 hours” value was found to be 7.32 nM; the “Max. Activity, cytotoxicity, 1:1 E:T, 72 hours” value stood at 85%; the “qAC50 [nM], cytotoxicity, 1:1 E:T, 72 hours” value was 1.19 nM.

B8: CD3W245 HL formatted in the 2+1 format (bispecific antibody)
scFv: EVQLVESGGGLVKPGGSLRLSCAASGFTFSRYNMNWVRQAPGKGLEWVSSISTSSNYIYYADSVKGRFTFSRDNAKNSLDLQMSGLRAEDTAIYYCTRGWGPFDYWGQGTLVTVSSGGSEGKSSGSGSESKSTGGSDIQMTQSPSSLSASVGDRVTITCRARQSIGTAIHWYQQKPGKAPKLLIKYASESISGVPSRFSGSGSGTDFTLTISSLQPEDFATYYCQQSGSWPYTFGQGTKLEIK
VH: B7 VH 1
VL: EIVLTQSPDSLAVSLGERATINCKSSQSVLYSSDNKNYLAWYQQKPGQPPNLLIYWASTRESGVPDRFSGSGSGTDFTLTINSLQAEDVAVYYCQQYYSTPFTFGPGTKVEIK
notes: two MSLN targeting (MSNB457) Fabs and one CD3 scFv set between Fab and Fc of one heavy chain; also called CD3W245 HL 2+1
The molecule B8 gave a concentration giving a half-maximal response (EC50) in [15] of 44 nM.

B9: CD3B2030-N106A (scFv, V domains shown)
VH: B7 VH 2 with M48I
VL: B7 VL 2 with L46W
In assay [16], B9 yielded a half-maximal effective concentration (EC50) of 50 to 100 nM.

B10: MNC3B187 (bispecific antibody)
scFv: B8 scFv
VH: B7 VH 1
VL: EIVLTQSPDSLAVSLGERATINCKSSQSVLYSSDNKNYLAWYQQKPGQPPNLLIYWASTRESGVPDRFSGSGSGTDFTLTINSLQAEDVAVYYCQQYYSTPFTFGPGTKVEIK
notes: Bipod: MSNB457 Fab x CD3W245 HL scFv-Fc; also called CD3W245 HL containing Bipod
For the molecule B10, in assay [14], the “AC90 [nM], cytotoxicity, 1:1 E:T, 72 hours” value stood at 0.016 nM; the “Max. Activity, cytotoxicity, 1:1 E:T, 72 hours” value is 88%; the “qAC50 [nM], cytotoxicity, 1:1 E:T, 72 hours” value stood at 0.0035 nM. Besides, the 50% effective concentration (EC50) in assay [15] stood at 2 nM.

B11: CD3B2051-N106A (scFv, V domains shown)
VH: B7 VH 2
VL: B7 VL 2
notes: CD3 targeting scFv
Molecule B11 registered a 50% effective concentration (EC50) in assay [16] of 50 to 100 nM.

As a reminder, the Kd is the equilibrium constant for the complex coming apart. One may read the IC50 as the concentration that inhibits the measured activity by half. Low values mean greater potency in that assay, high ones weaker potency in that assay. As usually defined, the EC50 is the concentration at which the effect is half-maximal. Read a high EC50 as a need for much substance.

(Values after patent US20240166737A1 (Janssen / Centocor, published 2024).)
